Test [1] has as its target T1, GFP-tagged active Vps21p mutant (Q66L) (S. cerevisiae, UniProt P36017 1-210, Q66L).
T1 construct: Vps21p (yeast Rab5), Saccharomyces cerevisiae, constitutively active mutant; also called Vps21Q66L; constitutively active Q66L mutant of Vps21p
T1 sequence (looked up): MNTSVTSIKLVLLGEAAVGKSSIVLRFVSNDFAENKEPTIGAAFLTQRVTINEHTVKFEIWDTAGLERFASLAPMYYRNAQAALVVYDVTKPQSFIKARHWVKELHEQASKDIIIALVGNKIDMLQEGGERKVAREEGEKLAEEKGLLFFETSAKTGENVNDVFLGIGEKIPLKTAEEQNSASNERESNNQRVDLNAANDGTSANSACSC
Briefly: pull-down; extract of yeast cells expressing GFP-tagged Vps21p mutant incubated with GST-GNB-bound Glutathione sepharose-4B; washed; incubated with Nluc-RbNT at 200 nM; bound fractions blotted with anti-6×His or anti-GFP antibody. The following applies: both partners purified.

Another test deals with T2, GFP-ALFA-Vps21p (S. cerevisiae, UniProt P36017 1-210).
T2 construct: Vps21p (yeast Rab5), Saccharomyces cerevisiae; The ALFA peptide lies between GFP and Vps21p, by the printed name; also called Rab5; yeast Rab5 (Vps21p); not shown: GFP, N-terminal, kept; ALFA peptide, N-terminal, kept
T2 sequence (looked up): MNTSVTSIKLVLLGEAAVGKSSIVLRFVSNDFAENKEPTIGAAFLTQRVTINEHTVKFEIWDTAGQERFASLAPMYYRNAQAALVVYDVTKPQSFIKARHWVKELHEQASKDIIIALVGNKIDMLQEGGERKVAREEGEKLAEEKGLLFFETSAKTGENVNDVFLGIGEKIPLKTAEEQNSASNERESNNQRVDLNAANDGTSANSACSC
Briefly: pull-down; GFP-ALFA-Vps21p from 600 μg cleared lysate of wild-type yeast held on GST-ANB Glutathione sepharose-4B; washed (20 mM Tris-HCl pH 8.0, 500 mM NaCl, 10 mM MgCl2, 0.1% NP-40); 10 pmole 6×His-RbNT-Nluc added, 1 hr in the cold room; eluted with ALFA peptide; Nluc activity read. Also run on ent3Δ ent5Δ, ent3Δ ent5Δ apl4Δ, pik1-1, pik1-1 ent3Δ, pik1-1 ypt31ts and pik1-1 ypt31ts gga1Δ gga2Δ cells. The note with it: both partners purified.

B1: 6×His-Nano luciferase (Nluc)-Rabenosyn5 N-terminal fragment (domain or fragment, human, UniProt Q9H1K0 1-40, looked up)
chain: MASLDDPGEVREGFLCPLCLKDLQSFYQLHSHYEEEHSGE
notes: Rabenosyn-5, human, N-terminal fragment (1-40 a.a.), RbNT; The legends name it 6×His-Nluc-RbNT and the methods 6×His-RbNT-Nluc; The cloning sites (Nluc at XhoI/EcoRI, RbNT at EcoRI/HindIII of pColdI) fit His-Nluc-RbNT; also called Nluc-RbNT; 6×His-RbNT-Nluc; source: E. coli KRX, purified (Ni-NTA agarose); not shown: His6, N-terminal, kept; Nano luciferase, N-terminal, kept
Regarding B1, the binding result (in test [1]; in the test with GFP-ALFA-Vps21p) was “binds” in each case.

(Values after doi:10.1101/2023.03.27.534325, “Distinct role of TGN-resident clathrin adaptors for Rab5 activation in the TGN-endosome trafficking pathway” (bioRxiv, 2023).)
